Laboratory results as given in patent US20180207278A1 (Amgen, published 2018).

Assays:
[1] = molecular target: T1, GM-CSF (immobilized on the SPR sensor chip); experiment: SPR (Biacore 3000, GM-CSF immobilized on CM5 chip); antibody 5.4 mg/ml in 20 mM acetate + 250 mM glutamic acid after 14 days at 55 C
T1 construct: also called immobilized GM-CSF; Granulocyte-macrophage colony stimulating factor
Description: (§1) The surface plasmon resonance (SPR) method was established to determine the degree of antibody binding activity to immobilized GM-CSF (Biacore 3000/CM5 sensor chip/HBS-EP running buffer). The SPR method was qualified by performing a nine-point range test, from which precision (six replicate injections) and linearity (triplicate standard curves) were determined and tested.
(§2) […] Previous studies indicated stabilizing effects of: 20 mM acetate pH 5; 20 mM histidine pH 6; 250 mM glutamic acid; 250 mM threonine, 6% (w/v) sorbitol and 6% (w/v) mannitol. […] Antibody in 1×PBS was included as a control. At T0, T7 and T14 (days), samples were analyzed by SE-HPLC and SPR.

[2] = molecular target: T1, GM-CSF (immobilized on the SPR sensor …); experiment: SPR (Biacore 3000, GM-CSF immobilized on CM5 chip); antibody 5.4 mg/ml in formulations 5-16 of Table 1 (all with mannitol or sorbitol) after 14 days at 55 C
Description: as §1, §2

[3] = molecular target: T1, GM-CSF (immobilized on the SPR sensor …); experiment: SPR (Biacore 3000, GM-CSF immobilized on CM5 chip); antibody 5.4 mg/ml in 20 mM histidine + 250 mM threonine after 14 days at 55 C
[4] = molecular target: T1, GM-CSF (immobilized on the SPR sensor …); experiment: SPR (Biacore 3000, GM-CSF immobilized on CM5 chip); antibody 5.4 mg/ml in 20 mM histidine + 250 mM glutamic acid after 14 days at 55 C
Description: as §1, §2

[5] = molecular target: T1, GM-CSF (immobilized on the SPR sensor …); experiment: SPR (Biacore 3000, GM-CSF immobilized on CM5 chip); antibody 5.4 mg/ml in 1xPBS after 14 days at 55 C
Description: as §1, §2

[6] = molecular target: T1, GM-CSF (immobilized on the SPR sensor …); experiment: SPR (Biacore 3000, GM-CSF immobilized on CM5 chip); antibody 5.4 mg/ml in 20 mM acetate + 250 mM threonine after 14 days at 55 C
Description: as §1, §2

binding activity relative to T0 [1]: 19% | binding activity relative to T0 [2]: > 93% | binding activity relative to T0 [3]: 85% | binding activity relative to T0 [4]: 91% | binding activity relative to T0 [5]: 62% | binding activity relative to T0 [6]: 26%
B1: human monoclonal IgG1 antibody that binds to and neutralizes human GM-CSF (antibody, V domains shown)
VH: QVQLVQSGAEVKKPGASVKVSCKAFGYPFTDYLLHWVRQAPGQGLEWVGWLNPYSGDTNYAQKFQGRVTMTRDTSISTAYMELSRLRSDDTAVYYCTRTTLISVYFDYWGQGTMVTVSS
VL: DIQMTQSPSSVSASVGDRVTIACRASQNIRNILNWYQQRPGKAPQLLIYAASNLQSGVPSRFSGSGSGTDFTLTINSLQPEDFATYYCQQSYSMPRTFGGGTKLEIKR
notes: also called the antibody; anti-GM-CSF antibody
